Laboratory results: the DeepSol protein solubility set

experiment: soluble on expression in E. coli; label from the status in PepcDB or PDB records

| Sequence | soluble on expression in E. coli |
| --- | --- |
| MSLNFPGSSSLLIVGASTRAAACSAVRAGFQPVCADQFADRDLRAVSEVVIKIDEHCHWLEEILKREPQNWIYTGALENRPEVINAINQRHTLLGNAEESLKKVRDPFFLQDMLVDQPIAISPCLPVDTQTPPRELWLRKPRLSAAGQGISFADSHTTDPTDSTQYYLQQFQPGIPLSALYLACDDCCVLIGTAVQFIGNRALHATGFQFCGGMTLPSMPPEWRHALGKLGHNIARGCHLRGLFGCDLIWNPDGQPGLWLTEVNPRYTALTELFELQYCLPLLRWHFAACRSCDASSAVAGTLADELIQLLKTKEKRTLSTVSKGIMYAPTDLTTPDLPWESSPRQVAWQIPTIADVPDRGTRIPAGTPVCTLYGTGDDQGECLLSMADQILRCQGQIQPELPRDLSRNEVRNMLWPRKESEKLNFSGFFSSRNVSGSFLEDEGHHHHHH | soluble |
| MKKFAAVIAVMALCSAPVMAAEQGGFSGPSATQSQAGGFQGPNGSVTTVESAKSLRDDTWVTLRGNIVERISDDLYVFKDASGTINVDIDHKRWNGVTVTPKDTVEIQGEVDKDWNSVEIDVKQIRKVNP | soluble |
| MRWFLLIVVSALFLSGCMPEIYTHASTPSTIIADNETHIAGRYAFVDVQVLDEYGLPVSGEDVSFYVDGAFLGEATTDTSGVARIGFFSPSEKTYTFTAVAGGVSRSFDVSFTKPKWLFIVWMAADNNLYYYSEDDLSEMRNASGSVSVVVVYDGIGIGDGMLVLDESGNFQAVVGTMGIDFNSGSYTNLEAWLEMILNQFDADHYALVIWDHGSAWIGDSYYISTKVIGYDDFQGTAIAVSNLRKALENALSGDKLDILGFDACLMGSLEVIYELRNTADYIVASSFNEPAEGWDYSFLGEIAPDSTPLDVARMIVDSYREYYSSDTYQNELSLAVYDTSQVEVFVSDLNLFISDLKADLSKVDAVYSDVVKSYIDDYNQTVLVDLGDFIDRWVSSSRITTAPDLSSVVVYSYGEIAGKTLSFPISIFMPESMSCYQDYQTDYQTLSFPYDTQWDEFLEYWLNQKGGLEHHHHHH | not soluble |
| MSELDFVRRGQDLKAYRALNWEGSFADYLRLLKEDPRPLRTSFQRVHDMILAHGVEEYTRFKEKLLHYRFFDDPFEGGKDAVFGLDKPLMRLVATLKAAAHRLGPERRILLLHGPVGSAKSTIARLLKKGLEAYSRTEEGKLFTFYWKTEEGPLPCPMHEEPLHLLPQDLREAFLEELRALHPDYPYPLEVEGDLCPVCRFQMREGLRKYEGDLAALLEHEVVVKRLVLSEKDRVGIGTFQPKDEKNQDSTELTGDINYRKVALYGSDSDPRAFNFDGELNIANRGIVEFIEILKLDVAFLYDLLTASQEHKIKSKKFAQTDIDEIVLGHTNEPEYRKLQANEYMEALRDRTIKIDVPYILRVSDEVRIYQRDFAKVRGKHIAPHTLEMAATWAVLTRLEPPKRAGLTLMQKLKLYDGKLLPGWTEEAVRELMGEAKREGLEGISPRYIQDKISNVLVTSEEPCINPFMVMNELEEGLKHHSLISDERTRERYRALLQEVKAEYAEIVKNEVQRAIAADEEALNRLFHNYIDHVKAYVLGEKVKNPYTGAPEPPNERLMRSIEERIDIPESRKDDFRREIMNYIGALALEGKPFTYKDNDRLRRALELKLFDDQKDTIRLSALVSGVVDPETQAKIDVVKARLIRDYGYCEHCASGVLEFAASLFARS | soluble |
| MYTPLYRPRYPEGLDPGIQHGVLRLLNPDPRVGEAEHRLENLLEPPYGGPPPPYYQSRPLRPYCYVSAEAGLNNLDPAVPRFVEVLSQPLVYLSPQETLV | soluble |
| MADKSAYMGAGGYGSGYMGSNASSSGYAREDYAQGGNGGGQQQQNQGSGGNTNPGGQVFKARTDQSCYLGP | not soluble |
| MGSDKIHHHHHHMKTRDKIIQASIELFNEQGERNVTTNHIAAHLAISPGNLYYHFRNKEDIILSIYEEYARSLLLETLPKVSSEVKPLDSLILYMDSVFQTTMKFRFFYSNLPVLLDKNPILREKYVEVQQSISERVSQLLISLRAADYIDFNDDELADIVSILRLINTFWVSFHQTQTIVNEVNDSVFYQGVLKILVILRPYTKAHAISELNHARDVYQQRYREEAETA | not soluble |
| MKNNPLISIYMPTWNRQQLAIRAIKSVLRQDYSNWEMIIVDDCSTSWEQLQQYVTALNDPRITYIHNDINSGACAVRNQAIMLAQGEYITGIDDDDEWTPNRLSVFLAHKQQLVTHAFLYANDYVCQGEVYSQPASLPLYPKSPYSRRLFYKRNIIGNQVFTWAWRFKECLFDTELKAAQDYDIFLRMVVEYGEPWKVEEATQILHINHGEMQITSSPKKFSGYFHFYRKHKDKFDRASKKYQLFTLYQIRNKRMTWRTLLTLLSVRNGKRLADGIRGRLEHHHHHH | soluble |
| MAASASGKSKTSAGANRRRNRPSPRQRLLDSATNLFTTEGIRVIGIDRILREADVAKASLYSLFGSKDALVIAYLENLDQLWREAWRERTVGMKDPEDKIIAFFDQCIEEEPEKDFRGSHFQNAASEYPRPETDSEKGIVAAVLEHREWCHKTLTDLLTEKNGYPGTTQANQLLVFLDGGLAGSRLVHNISPLETARDLARQLLSAPPADYSI | soluble |
| AAWLQRKQFVSAGQEVAARLNTLGAELTQSRNDMREALALAQAQSGKVAELEGKVREAQSQYSALQQALQNLNDGASDEMLANDIERLITIASQQLRLAGNVSNAIVALETAQARLARADRPRFASLQQSINGDLDRLRAVGVVDIAAQSARIDRLVALVGRAPLLVPDAAAPGVTAVPQANEAVPASVDPGADLPADAAWWQRWQAEIASWPGRAGSALAHELGDLIRVQRVDQPTALLLSPEQAGQLRSTLRQRLLTAQLSMLMRQPAVWKSELDAVAATLAQYFDGKAPDTVAALALARELGQVEIAVRVPDVADSLNGIAALRAAGFNADG | not soluble |
| RKPTALIILDGFGLREETYGNAVAQAKKPNFDGYWNKFPHTTLTACGEAVGLPEGQMGNSEVGHLNIGAGRIVYQSLTRVNVAIREGEFDKNETFQSAIKSVKEKGTALHLFGLLSDGGVHSHMNHMFALLRLAAKEGVEKVYIHAFLDGRDVGPKTAQSYIDATNEVIKETGVGQFATISGRYYSMDRDKRWDRVEKCYRAMVNGEGPTYKSAEECVEDSYANGIYDEFVLPSVIVNEDNTPVATINDDDAVIFYNFRPDRAIQIARVFTNGDFREFDRGEKVPHIPEFVCMTHFSETVDGYVAFKPMNLDNTLGEVVAQAGLKQLRIAETEKYPHVTFFFSGGREAEFPGEERILINSPKVATYDLKPEMSIYEVTDALVNEIENDKHDVIILNFANCDMVGHSGMMEPTIKAVEATDECLGKVVEAILAKDGVALITADHGNADEELTSEGEPMTAHTTNPVPFIVTKNDVELREDGILGDIAPTMLTLLGVEQPKEMTGKTIIK | soluble |
| MGNIIRIGMADLKASHHPAILTTLGLGSCVGIALYDRTTKIVGLAHAMLPDSSQVKNKTNAAKFVDTAIELLVKEMLSLGASKKRIVAKLAGGAQMFTFTQGAELMRIGQRNVAAAKSKLESLDIPVVSEDTGGNYGRTVELDSESGMLLIRTIGYGTKQI | not soluble |
| QAMLIGEIMDLNLKNFLEDREEIIRDAKRKDEKSFKDFKKIVEEIKERENKDKIVCDFTEYNPLHKGHKYALEKGKEHGIFISVLPGPLERSGRGIPYFLNRYIRAEMAIRAGADIVVEGPPMGIMGSGQYMRCLIKMFYSLGAEIIPRGYIPEKTMEKVIDCINKGYHIQVKPYKIICIETGEILGEKLNIDNYVIASMSQMIYKLNREGLKFNPKFVFVKRLEGISGTKIREAIFSGKFEDIKNMLPKTTLSILKELYDNGKLNELILKRFEDRILETANEYDLYEYLPSNVAEILEKKRPFNNIEEIKNSLPYGFSRHFRERILSKLEARIPNETLSKYINNYPAKIKILAVKL | soluble |
| MGSDKIHHHHHHMNQSKTAIVIDSSANIAPEIVRKYHFTIVNQPVMFGKHVYHENMDIDSDEFYRMLKLEKYHPTASQIPMKEMQEVFSNLAQAGYEAALCIGLSGGLSGFINSVSASVPAIKDLQVYPYDSGSILAGVEKVAILASHLLDNGVDIHEVLHQMRKYRRQTQAYIAVNNIKELQNMGNISNRTSLVGSFFGMRPILTINHQGRLEMVGKERQMKNAMEAIEEIFDKQLVDHTNLVVTVIDANDVDRSMQWQSTLKAKYPGMQVESQQIGPYVGTYTGSKAIGLIWSPKL | not soluble |
| MKKKQVMLALTAAAGLGLTALHSAPAAKAAPLHDISVSMPSSDTYIIKAGKLNVRTEPNHEGDILGTVSSEQKVKVDRFVNADWAQIHFKGKKAYISTHFLMKTASQAKTTKQTAFYTPTPENGKAKQLSSGTEVTILGWGFSENGGFDFTWAFVDYGGVKGYIHTKDLQMRLEHHHHHH | soluble |
| MADTLGKSELEVIKPQKREIRKGQVRKHIITVKVRNEMGVLARIATLIAGKGYNIEGLSVGETHEKGISRMTIEVIGDDIVIEQVVKQLRRLIDTLKVSDLTDVPHVERELALIKVYTPSSRARDEVLRITEIFRGKVVDVSPDTYTIEVTGDEDKINAMIELLKPFGIKEMARTGKVAMRREMSIKEEENELEHHHHHH | not soluble |
| MKKLLLSILFVGGGLISLSNNFTGPRYRVDISTGFIDDRRFALTSGYKFFSGSVSVLPEWELKFNKKFDISFGPKVSLNFENFIGSMDATTINPSIILGGEIDFNYKVIEDVKIYAGMEVGTGIGFQAFVSSSHNHFQGPELKTESKISLGVKVKDKFNLAFYTGDIKGVIGVEAGYTF | not soluble |
| MTIWLVTRHPGAIEWVARQGIQWDKHAAHLDPCEITAGDTVIGSLPINLAAEICNRGARYFNLSLNLPAHLRGRELDAATLTACEARLEEYIVKKVNS | not soluble |
| MSDRGRTLMVQGTTSDAGKSTLVTALCRWLARRGVAVVPFKPQNMALNSAVTADGGEIGRAQAVQAQACRLAPHTDMNPVLLKPNTDIGAQVIIHGRAVTSMDAAAYHDYKRVAMEAVLASHGRLAAAYRVVMVEGAGSPAEINLRANDIANMGFAEAVDCPVILVADIDRGGVFAHLVGTLELLSDSERERVKGFVINRFRGDIALLQPGLDWLEARTGKPVLGVLPYVSDLHLEAEDAIDTRQAAKVGPRLKVVVPVLPRISNHTDFDPLRLHPQVELSFVGPGQALPSADLIVLPGSKSVRADLAALRERGWDEAILRHLRYGGRLLGICGGLQMLGERLHDPLGLEGAAGSSAGLGLLALETTLEADKQLRNVQGRLSLEDAPLSGYEIHAGVTRGEALARPAVVLDDGRADGARSVDGNVMGTYLHGLFESTAACSALLRWAGLREVQAVDYQALRERDIERLADLVERHLDTGRLLALCGEPH | not soluble |
| GLEVDNNSLLRNIYSTIVYEYSDIVIDFKTSHNLVTKKLDVRDARDFFINSEMDEYAANDFKTGDKIAVFSVPFDWNYLSKGKVTAYTYGGITPYQKTSIPKNIPVNLWINGKQISVPYNEISTNKTTVTAQEIDLKVRKFLIAQHQLYSSGSSYKSGRLVFHTNDNSDKYSFDLFYVGYRDKESIFKVYKDNKSFNIDKIGHLDIEIDS | soluble |
